Experiments:
[1] = target: T1, M15-L-P1-AR target polypeptide with P1 = V
T1 chain: LVAR

[2] = target: T2, M15-L-P1-AR target polypeptide with P1 = I
T2 chain: LIAR

[3] = target: T3, M15-L-P1-AR target polypeptide with P1 = L
T3 chain: LLAR

[4] = target: T4, M15-L-P1-AR target polypeptide with P1 = A
T4 chain: LAAR

[5] = target: T5, M15-L-P1-AR target polypeptide with P1 = M
T5 chain: LMAR

[6] = target: T6, M15-L-P1-AR target polypeptide with P1 = Q
T6 chain: LQAR

[7] = target: T7, M15-L-P1-AR target polypeptide with P1 = D
T7 chain: LDAR

[8] = target: T8, M15-L-P1-AR target polypeptide with P1 = E
T8 chain: LEAR

[9] = target: T9, M15-K(biotin)-AAR peptide (SEQ ID NO: 12)
T9 chain: KAAR

B1: M15-L_Z001 (first selected modified cleavase) (protein)
chain: MHKTRLVAALAAALATLAPAAWADEGMWVPQQLPEIAGALKKAGLKLDPKQLSDLTGDPMGAVVSLGGCTGSFVSPQGLVATNHHCAYGAIQLNSTPEKNLIKDGFNAPTQADELSAGPNARIYVLEGITDVTAQAKAAMAAAGNDPVARANALEAFEKKITSDCEAEPGYRCRVYSFMGGITYRLFKNLEIKDVRLVYAPPSSVGKFGGDIDMGMWPTHTGDFSFYRAYVGKDGKPAPYSKDNVPYRPKHWLKIADTPLGEGDFVMVAGYPGRTDRYALVAEFENTQNWLYPAISKAYKDQIALVEAAAKDNPEIAVKYAAALAGWNRTSKNFDGQLEGFKRNDVLAIKRREEAAVLEWLRARGKAGTPALEAHAALVKLVADTARTQERDLVLGSFNRTGIIGVAVNLYRLAIERQKPDAEREPGYQQRDLPVIEGSLKQMERRYVPAMDRQLRAYWLDRYVALPAAQHVAAVDAWLGGSDKAAAEAALARLDQSRLGSLEERLKWFNADRAAFEASTDPAIQYAVAVMPTLLAMEQQAKTRYGVALEARPRYLQAVVDYKKSKGQAVYPDANSTLRITYGHVKGYTGLNGKVYTPFTTLEEVAAKETGVEPFDNPKALLEAVAAKRYAGLADARLGTVPVNFLADLDITGGNSGSPVLDANGRLVGLAFAGTLESVASNWVFDPVLTRMISVDQRYMRWIMQEVMPAPQLLEELGVPPRQ
- cleavage of the M15-L-labeled P1 residue from the polypeptide [1]: provided 100% cleavage for polypeptides with the following M15-L-labeled P1 residues: A, I, L, M, Q, V
- cleavage of the M15-L-labeled P1 residue from the polypeptide [2]: provided 100% cleavage for polypeptides with the following M15-L-labeled P1 residues: A, I, L, M, Q, V
- cleavage of the M15-L-labeled P1 residue from the polypeptide [3]: provided 100% cleavage for polypeptides with the following M15-L-labeled P1 residues: A, I, L, M, Q, V
- cleavage of the M15-L-labeled P1 residue from the polypeptide [4]: provided 100% cleavage for polypeptides with the following M15-L-labeled P1 residues: A, I, L, M, Q, V
- cleavage of the M15-L-labeled P1 residue from the polypeptide [5]: provided 100% cleavage for polypeptides with the following M15-L-labeled P1 residues: A, I, L, M, Q, V
- cleavage of the M15-L-labeled P1 residue from the polypeptide [6]: provided 100% cleavage for polypeptides with the following M15-L-labeled P1 residues: A, I, L, M, Q, V

B2: M15-L_Z002 (protein)
chain: B1 chain
- cleavage profile (cleavage efficiency) [7]: M15-L_Z002, having specificity towards D and E in the P1 position
- cleavage profile (cleavage efficiency) [8]: M15-L_Z002, having specificity towards D and E in the P1 position

B3: engineered dipeptidyl peptidase clone (SEQ ID NO: 6) derived from dipeptidyl peptidase from Thermomonas hydrothermalis (protein)
chain: DEGMWVPQQLPEIAGALKKAGLKLDPKQLSDLTGDPMGAVVSLGGCTGSFVSPQGLVATNHHCAYGAIQLNSTPEKNLIKDGFNAPTQADELSAGPNARIYVLEGITDVTAQAKAAMAAAGNDPVARANALEAFEKKITSDCEAEPGYRCRVYSFMGGITYRLFKNLEIKDVRLVYAPPSSVGKFGGDIDMGMWPTHTGDFSFYRAYVGKDGKPAPYSKDNVPYRPKHWLKIADTPLGEGDFVMVAGYPGRTDRYALVAEFENTQNWLYPAISKAYKDQIALVEAAAKDNPEIAVKYAAALAGWNRTSKNFDGQLEGFKRNDVLAIKRREEAAVLEWLRARGKAGTPALEAHAALVKLVADTARTQERDLVLGSFNRTGIIGVAVNLYRLAIERQKPDAEREPGYQQRDLPVIEGSLKQMERRYVPAMDRQLRAYWLDRYVALPAAQHVAAVDAWLGGSDKAAAEAALARLDQSRLGSLEERLKWFNADRAAFEASTDPAIQYAVAVMPTLLAMEQQAKTRYGVALEARPRYLQAVVDYKKSKGQAVYPDANSTLRITYGHVKGYTGLNGKVYTPFTTLEEVAAKETGVEPFDNPKALLEAVAAKRYAGLADARLGTVPVNFLADLDITGGNSGSPVLDANGRLVGLAFAVTLESVASNWVFDPVLTRMISVDQRYMRWIMQEVMPAPQLLEELGVPPRQ
- percentage of conversion to cleavage product (HPLC, UV absorbance at 254 nm) [9]: about 10% of the model peptide was converted to the cleavage product, M15-K(biotin)-A
